Measured values: article PMC7291361 (ACS infectious diseases, 2020)

Biological target: H1 SI-06 HA FLsE (Influenza A virus A/Solomon …, UniProt A7UPX0, strain)
Assay: ELISA

B1: K03.12 IgG (antibody, V domains shown)
VH: QVQLVQSGAEVKKPGASVKVSCKTSGYTFTAYYLHWVRQAPGQGFEWMAWINPNTGDTNYAQKFQGRVTLSRDTSITTAYMELTRLRSDDTAVYYCAKDLTLMYVFDSGWARGAHDYYGMDVWGQGTTVAVSG
VL: PSALTQPASVSGSPGQSVTISCTGTNSDVGTFDLVSWYQQYPGKAPKLIIYEGSRRPSGVSDRFSGSKSGNTASLTISGLQAEDEADYYCSSYAGSVVFGGGTKLTVL
binding result: binds
